We go through one substance from patent US20240254458A1.

This experiment addresses LexA408-DBD-iLight V464L-msfGFP (E. coli; Idiomarina sp.). The experiment is described as follows: cell-based or functional assay.

LexA408-DBD-iLight V464L-msfGFP returned an inhibition efficiency of the gene expression (mCherry reporter, E. coli, 660 nm) of 1.6 fold.
